# Columns and labels:
# Conditions in all cases: both partners purified
# [1] = target: T1, wt-p53 (1–321 aa) (human, UniProt P04637 1-321); assay: ITC; Microcal iTC200, 25 °C; 0.012–0.030 mM p53 in the cell, 0.1–0.3 mM Mdm2 or MdmX in the syringe; 20 injections; single set of sites; in duplicate
# T1 construct: p53, human, residues 1-321, cloned into pET23; also called p53-wt; source: E. coli BL21 (DE3) RIL, purified (Ni-NTA, gel filtration)
# [2] = target: human wt-PD-1 (33–150 aa, C93S mutation) (human, UniProt Q15116 33-150, C93S, RED-NHS fluorescent label (in the MST); uniformly 15N-labelled (in the NMR)); assay: MST; PD-1 or mutant labelled with RED-NHS, kept at 20 nM; unlabelled PD-L1 diluted from 183 µM to 416 nM; 50 mM Tris-HCl pH 7.6, 150 mM NaCl, 10 mM MgCl2, 0.05% Tween-20; 2 h at RT
# Sequence of human wt-PD-1 (33–150 aa, C93S mutation) (Q15116 33-150 C93S): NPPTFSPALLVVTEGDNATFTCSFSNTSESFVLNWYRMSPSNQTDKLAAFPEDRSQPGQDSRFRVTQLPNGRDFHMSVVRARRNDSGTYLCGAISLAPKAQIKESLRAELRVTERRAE
# [3] = target: (N66A)PD-1 (human, UniProt Q15116 33-150, C93S | N66A, RED-NHS fluorescent label (in the MST); uniformly 15N-labelled (in the NMR)); assay: as above
# Sequence of (N66A)PD-1 (Q15116 33-150 N66A/C93S): as the sequence (Q15116 33-150 C93S) above, with N34A counted along it
# T1 sequence (P04637 1-321): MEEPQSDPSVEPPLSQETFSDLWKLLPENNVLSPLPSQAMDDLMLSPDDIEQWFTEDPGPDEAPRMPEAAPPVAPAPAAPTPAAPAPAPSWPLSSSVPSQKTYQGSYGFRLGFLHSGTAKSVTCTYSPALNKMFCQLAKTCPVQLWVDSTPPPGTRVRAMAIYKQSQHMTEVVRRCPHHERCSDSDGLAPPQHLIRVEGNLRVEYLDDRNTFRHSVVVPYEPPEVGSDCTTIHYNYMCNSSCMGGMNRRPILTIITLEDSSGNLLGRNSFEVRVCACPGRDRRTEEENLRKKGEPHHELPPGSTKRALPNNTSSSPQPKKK
Binder,Kd [1] [nM],Kd [2] [µM],Kd [3] [µM]
"recombinant human Mdm2 (1–125 aa) (domain or fragment, UniProt Q00987 1-125, looked up) MCNTNMSVPTDGAVTTSQIPASEQETLVRPKPLLLKLLKSVGAQKDTYTMKEVLFYLGQYIMTKRLYDEKQQHIVYCSNDLLGDLFGVPSFSVKEHRKIYTMIYRNLVVVNQQESSDSGTSVSEN",600 ± 20,–,–
recombinant PD-L1 (18–134 aa) (domain or fragment) AFTVTVPKDLYVVEYGSNMTIECKFPVEKQLDLAALIVYWEMEDKNIIQFVHGEEDLKVQHSSYRQRARLLKDQLSLGNAALQITDVKLQDAGVYRCMISYGGADYKRITVKVNAPY,–,8,> 100

# Source: article PMC7412237 (Molecules, 2020)
